Reference: article PMC7158967, “Comparative evaluation of ^68Ga-labelled TATEs: the impact of chelators on imaging” (EJNMMI Research, 2020)
Where two headings read alike, the source gives them in different places.

Assays:
[1] = format: in vitro ADME; conditions: human
Method: In vitro serum binding studies for both ^68Ga-labelled NOTA-TATE and DOTA-TATE were carried out by following a generalized procedure summarized below. One millilitre of fresh anticoagulated (heparinized) human plasma was prepared. Freshly labelled compound (3.7 MBq, 0.1 mCi) was added to three centrifuge tubes, each containing 0.1 mL of human plasma. After incubation at 37 °C for 2 h, 1 mL of ice-cold methanol was added to each tube. The mixtures were separated by centrifugation (5 min, 3000 rpm) to collect the supernatant, which was repeated three times. A gamma counter was then used to measure the radioactivity of the supernatant (A) and the precipitate (B) in counts per minute (CPM); the plasma-protein binding rate was calculated as PPB = B/(A + B)100%, and the average of three tubes was recorded.

KM mice = conditions: mouse, in vivo
Method: Thirty KM mice were randomly divided into a control group, a ^68Ga- NOTA-TATE low-dose group (100 μCi) and a high-dose group (1 mCi). Each group contained 10 mice, half female and half male. The dose of the appropriate compound was administered through the tail vein at an administration volume of 0.2 mL. The animal blood routine, body weight and animal feed consumption were performed before administration and on days 4, 7, 14, 21 and 28 after administration. At the end of the observation period, the surviving mice were dissected, and histopathological examination was performed on the myocardium, liver, spleen, lung, kidney, stomach, intestine, gonad, bone, muscle and brain of each mouse.

[2] = Biodistribution in AR42J tumour-bearing nude mice; conditions: mouse, in vivo; for tissue to tissue ratio at 0.25 h / tissue to tissue ratio at 0.5 h / tissue to tissue ratio at 1 h / tissue to tissue ratio at 2 h: both sexes, nude, iv, 0.1 mCi, total radioactivity
Method: (§1) Tumour cells were subcutaneously injected into the left forelimb of each nude mouse. Biodistribution and imaging studies were conducted when the tumour volume reached at least 1.0 × 1.0 × 1.0 cm^3.

[3] = Micro-PET/CT imaging of AR42J tumour-bearing nude mice; conditions: both sexes, mouse, in vivo, iv, 2.96 MBq, total radioactivity, nude mice bearing AR42J tumours, read-out: SUVmax, 3D micro-PET/CT
Method: as §1
Six (3 female and 3 male) mice with AR42J tumour xenografts (15–20 g) were used in the imaging study. All tumour-bearing mice were anaesthetized by intranasal inhalation of isoflurane. […] Images were acquired and reconstructed using micro-PET/CT at 30 min and 2 h after intravenous injection.

healthy volunteers = assay: clinical; conditions: human, in vivo
Method: (§2) Twenty-two healthy volunteers gave informed consent and agreed to participate in the study. […] Each patient was injected with an average activity of 1.9 MBq/kg. The timing of image acquisition ranged from 30 to 45 min after injection (3 min/bed position). The PET image was attenuated and then reconstructed using the iterative reconstruction algorithm implemented.

clinical = conditions: human, in vivo, total radioactivity
Method: as §2

For `C[C@@H](O)[C@@H]1NC(=O)[C@H](CCCCN)NC(=O)[C@@H](Cc2c[nH]c3ccccc23)NC(=O)[C@H](Cc2ccccc2)NC(=O)[C@@H](NC(=O)[C@@H](Cc2ccccc2)NC(=O)CN2CCN(CC(=O)O)CCN(CC(=O)O)CC2)CSSC[C@@H](C(=O)N[C@H](CO)[C@@H](C)O)NC1=O` [^68Ga-NOTA-TATE, metal not drawn], the fraction unbound at 2 h [1] was 0.879, the “acute animal toxicity, overall finding” value (KM mice) was “no apparent toxicity” and the histopathological examination (KM mice) was “no toxic pathological changes”. It also gave a tissue to tissue ratio at 0.25 h [2] of 12.5, a tissue to tissue ratio at 0.5 h [2] of 8.45 and a tissue to tissue ratio at 1 h [2] of 39.5. For the same molecule, the tissue to tissue ratio at 2 h [2] was 44.3, the tissue to tissue ratio at 0.25 h ([2]; 15 min postinjection, read-out: Tumour/kidney ratio) was 0.18 and the tissue to tissue ratio at 0.5 h ([2]; 0.5 h postinjection, read-out: Tumour/kidney ratio) was 0.94. For the same molecule, the tissue to tissue ratio at 1 h ([2]; 1 h postinjection, read-out: Tumour/kidney ratio) was 0.81, the tissue to tissue ratio at 2 h ([2]; 2 h postinjection, read-out: Tumour/kidney ratio) was 0.79 and the tissue uptake at 0.25 h ([2]; %ID/g Blood) was 3.25 ± 1.06 %ID/g. It also gave a tissue uptake at 0.5 h ([2]; %ID/g Blood) of 1.01 ± 0.42 %ID/g, a tissue uptake at 1 h ([2]; %ID/g Blood) of 0.58 ± 0.24 %ID/g and a tissue uptake at 2 h ([2]; %ID/g Blood) of 0.07 ± 0.06 %ID/g. The tissue uptake at 0.25 h ([2]; %ID/g Gallbladder) was 3.62 ± 1.94 %ID/g, the tissue uptake at 0.5 h ([2]; %ID/g Gallbladder) was 6.21 ± 2.69 %ID/g and the tissue uptake at 1 h ([2]; %ID/g Gallbladder) was 1.83 ± 0.84 %ID/g. The tissue uptake at 2 h ([2]; %ID/g Gallbladder) was 1.61 ± 0.67 %ID/g, the tissue uptake at 0.25 h ([2]; %ID/g Intestines) was 0.07 ± 0.04 %ID/g and the tissue uptake at 0.5 h ([2]; %ID/g Intestines) was 0.03 ± 0.02 %ID/g. The tissue uptake at 1 h ([2]; %ID/g Intestines) was 0.21 ± 0.09 %ID/g, the tissue uptake at 2 h ([2]; %ID/g Intestines) was 0.13 ± 0.07 %ID/g and the tissue uptake at 0.25 h ([2]; %ID/g Kidney) was 17.1 ± 6.39 %ID/g. It also gave a tissue uptake at 0.5 h ([2]; %ID/g Kidney) of 4.23 ± 2.73 %ID/g, a tissue uptake at 1 h ([2]; %ID/g Kidney) of 3.79 ± 2.16 %ID/g and a tissue uptake at 2 h ([2]; %ID/g Kidney) of 1.69 ± 1.02 %ID/g. It also gave a tissue uptake at 0.25 h ([2]; %ID/g Liver) of 1.19 ± 0.54 %ID/g, a tissue uptake at 0.5 h ([2]; %ID/g Liver) of 0.43 ± 0.23 %ID/g and a tissue uptake at 1 h ([2]; %ID/g Liver) of 0.07 ± 0.04 %ID/g. For the same molecule, the tissue uptake at 2 h ([2]; %ID/g Liver) was 0.04 ± 0.02 %ID/g, the tissue uptake at 0.25 h ([2]; %ID/g Lungs) was 3.64 ± 1.56 %ID/g and the tissue uptake at 0.5 h ([2]; %ID/g Lungs) was 0.21 ± 0.17 %ID/g. It also gave a tissue uptake at 1 h ([2]; %ID/g Lungs) of 0.64 ± 0.41 %ID/g, a tissue uptake at 2 h ([2]; %ID/g Lungs) of 0.48 ± 0.21 %ID/g and a tissue uptake at 0.25 h ([2]; %ID/g Muscle) of 0.26 ± 0.03 %ID/g. It also gave a tissue uptake at 0.5 h ([2]; %ID/g Muscle) of 0.47 ± 0.26 %ID/g, a tissue uptake at 1 h ([2]; %ID/g Muscle) of 0.08 ± 0.06 %ID/g and a tissue uptake at 2 h ([2]; %ID/g Muscle) of 0.03 ± 0.01 %ID/g. The tissue uptake at 0.25 h ([2]; %ID/g Skeleton) was 2.14 ± 1.41 %ID/g, the tissue uptake at 0.5 h ([2]; %ID/g Skeleton) was 1.46 ± 0.37 %ID/g and the tissue uptake at 1 h ([2]; %ID/g Skeleton) was 0.85 ± 0.38 %ID/g. For the same molecule, the tissue uptake at 2 h ([2]; %ID/g Skeleton) was 0.13 ± 0.07 %ID/g, the tissue uptake at 0.25 h ([2]; %ID/g Spleen) was 0.19 ± 0.08 %ID/g and the tissue uptake at 0.5 h ([2]; %ID/g Spleen) was 0.13 ± 0.11 %ID/g. It also gave a tissue uptake at 1 h ([2]; %ID/g Spleen) of 0.12 ± 0.06 %ID/g, a tissue uptake at 2 h ([2]; %ID/g Spleen) of 0.03 ± 0.01 %ID/g and a tissue uptake at 0.25 h ([2]; %ID/g Stomach) of 0.19 ± 0.13 %ID/g. For the same molecule, the tissue uptake at 0.5 h ([2]; %ID/g Stomach) was 3.55 ± 1.83 %ID/g, the tissue uptake at 1 h ([2]; %ID/g Stomach) was 1.61 ± 1.03 %ID/g and the tissue uptake at 2 h ([2]; %ID/g Stomach) was 1.11 ± 0.21 %ID/g. For the same molecule, the tissue uptake at 0.25 h ([2]; %ID/g Tumour) was 3.24 ± 1.03 %ID/g, the tissue uptake at 0.5 h ([2]; %ID/g Tumour) was 3.97 ± 2.24 %ID/g and the tissue uptake at 1 h ([2]; %ID/g Tumour) was 3.16 ± 1.92 %ID/g. The tissue uptake at 2 h ([2]; %ID/g Tumour) was 1.33 ± 0.96 %ID/g, the SUV at 0.5 h ([3]; 30 min after i.v. injection) was 3.02 SUV and the SUV at 2 h ([3]; 120 min after i.v. injection) was 1.64 SUV. For the same molecule, the “SUVmax Adrenals, range” value (healthy volunteers) was 5.7~15.6, the “SUVmax Blood pool, range” value (healthy volunteers) was 0.9~1.6 and the “SUVmax Bone marrow, range” value (healthy volunteers) was 0.7~1.1. The “SUVmax Breast, range” value (healthy volunteers) was 0.5~1.1, the “SUVmax Kidneys, range” value (healthy volunteers) was 6.2~20.3 and the “SUVmax Large bowel, range” value (healthy volunteers) was 1.0~2.4. The “SUVmax Liver, range” value (healthy volunteers) was 1.3~6.3, the “SUVmax Lungs, range” value (healthy volunteers) was 0.3~0.9 and the “SUVmax Lymph nodes, range” value (healthy volunteers) was 0.8~1.4. The “SUVmax Palatine tonsil, range” value (healthy volunteers) was 0.6~1.8, the “SUVmax Pancreas, range” value (healthy volunteers) was 2.0~5.5 and the “SUVmax Parotid gland, range” value (healthy volunteers) was 0.7~1.3. For the same molecule, the “SUVmax Pituitary gland, range” value (healthy volunteers) was 0.7~2.3, the “SUVmax Small bowel, range” value (healthy volunteers) was 1.4~2.5 and the “SUVmax Spleen, range” value (healthy volunteers) was 10.7~17.1. The “SUVmax Stomach, range” value (healthy volunteers) was 1.6~4.9, the “SUVmax Submandibular, range” value (healthy volunteers) was 0.7~1.4 and the “SUVmax Thymus, range” value (healthy volunteers) was 0.6~1.4. The “SUVmax Thyroid, range” value (healthy volunteers) was 1.2~2.5, the “radioactivity in the gallbladder” value (healthy volunteers) was “not seen” and the “side effects after administration” value (healthy volunteers) was “no apparent side effects”. For the same molecule, the “uptake in the brain” value (healthy volunteers) was “No apparent”, the SUV (clinical; both sexes, 1.9 MBq/kg, SUVmax Adrenals, average) was 10.7 SUV and the SUV (clinical; both sexes, 1.9 MBq/kg, SUVmax Blood pool, average) was 1.4 SUV. For the same molecule, the SUV (clinical; both sexes, 1.9 MBq/kg, SUVmax Bone marrow, average) was 0.9 SUV, the SUV (clinical; both sexes, 1.9 MBq/kg, SUVmax Kidneys, average) was 14.1 SUV and the SUV (clinical; both sexes, 1.9 MBq/kg, SUVmax Large bowel, average) was 1.5 SUV. For the same molecule, the SUV (clinical; both sexes, 1.9 MBq/kg, SUVmax Liver, average) was 4.2 SUV, the SUV (clinical; both sexes, 1.9 MBq/kg, SUVmax Lungs, average) was 0.6 SUV and the SUV (clinical; both sexes, 1.9 MBq/kg, SUVmax Lymph nodes, average) was 1.2 SUV. The SUV (clinical; both sexes, 1.9 MBq/kg, SUVmax Palatine tonsil, average) was 1.3 SUV, the SUV (clinical; both sexes, 1.9 MBq/kg, SUVmax Pancreas, average) was 3.7 SUV and the SUV (clinical; both sexes, 1.9 MBq/kg, SUVmax Parotid gland, average) was 0.9 SUV. It also gave an SUV (clinical; both sexes, 1.9 MBq/kg, SUVmax Pituitary gland, average) of 1.5 SUV, an SUV (clinical; both sexes, 1.9 MBq/kg, SUVmax Small bowel, average) of 1.8 SUV and an SUV (clinical; both sexes, 1.9 MBq/kg, SUVmax Spleen, average) of 14.6 SUV. It also gave an SUV (clinical; both sexes, 1.9 MBq/kg, SUVmax Stomach, average) of 2.4 SUV, an SUV (clinical; both sexes, 1.9 MBq/kg, SUVmax Submandibular, average) of 1.2 SUV and an SUV (clinical; both sexes, 1.9 MBq/kg, SUVmax Thymus, average) of 1.1 SUV. For the same molecule, the SUV (clinical; both sexes, 1.9 MBq/kg, SUVmax Thyroid, average) was 1.7 SUV, the SUV (clinical; both sexes, iv, 1.9 MBq/kg, SUVmax Breast, average) was 0.7 SUV and the SUV (clinical; iv, 1.86 mCi, SUVmax kidney, single volunteer) was 12.5 SUV. The SUV (clinical; iv, 1.86 mCi, SUVmax liver, single volunteer) was 1.4 SUV, the SUV (clinical; iv, 1.86 mCi, SUVmax pituitary, single volunteer) was 1.9 SUV and the SUV (clinical; iv, 1.86 mCi, SUVmax spleen, single volunteer) was 6.8 SUV. It also gave an SUV (clinical; iv, 3.83 mCi, SUVmax kidney, single volunteer) of 6.2 SUV, an SUV (clinical; iv, 3.83 mCi, SUVmax liver, single volunteer) of 1.3 SUV and an SUV (clinical; iv, 3.83 mCi, SUVmax pituitary, single volunteer) of 0.7 SUV. It also gave an SUV (clinical; iv, 3.83 mCi, SUVmax spleen, single volunteer) of 3.9 SUV.
